Assay results published in the supplement of paper PMC7877785.
± gives the uncertainty stated by the source.

Assay: self-splicing fitness, log relative to wild type (ln ratio); higher = more splicing; Tetrahymena group I intron in knt gene, E. coli kanamycin selection, DiMSum; sequences stand for … in CUCUCU…GGAGGGAAAAGUUAUCAGGCAUGCACCUGGUAGCUAGUCUUUAAACCAAUAGAUUGCAUCGGUUUAAAAGGCAAGACCGUCAAAUUGCGGGAAAGGGGUCAACAGCCGUUCAGUACCAAGUCUCAGGGGAAACUUUGAGAUGGCCUUGCAAAGGGUAUGGUAAUAAGCUGACGGACAUGGUCCUAACCACGCAGCCAAGUCCUAAGUCAACAGAUCUUCUGUUGAUAUGGAUGCAGUUCACAGACUAAAUGUCGGUCGGGGAAGAUGUAUUCUUCUCAUAAGAUAUAGUCGGACCUCUCCUUAAUGGGAGCUAGCGGAUGAAGUGAUGCAACACUGGAGCCGCUGGGAACUAAUUUGUAUGCGAAAGUAUAUUGAUUAGUUUUGGAGUACUCGUGGUCG
Summary of the method: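 Colonies from six replicate transformations of E. coli BL21(DE3) were pooled and amplicon-sequenced on an Illumina HiSeq 2500. The library placed an intron with all eight P1ex-region nucleotides randomised inside the knt kanamycin-resistance gene on pET-22b(+), and cells grew overnight at 37°C or 30°C on LB agar with or without 25 μg/mL kanamycin (plus 100 μg/mL carbenicillin, 50 μM IPTG, 0.2% rhamnose). Fitness is the DiMSum error-weighted combination of wild-type-normalised replicate fold changes, kanamycin versus none.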

| Sequence | self-splicing fitness (ln) (30 °C) | self-splicing fitness (ln) (37 °C) |
| --- | --- | --- |
| CUGAAGCAAUAUUACGGCAG | -0.522 ± 0.11 | -0.657 ± 0.14 |
| CUGAAGCAAUAUUACGGCGG | -0.674 ± 0.073 | -0.503 ± 0.1 |
| CUGAAGCAAUAUUACGGGAA | -2.05 ± 0.18 | – |
| CUGAAGCAAUAUUACGGGAG | -0.441 ± 0.067 | -0.168 ± 0.078 |
| CUGAAGCAAUAUUACGGUAU | -3.66 ± 0.26 | -2.54 ± 0.28 |
| CUGAAGCAAUAUUACGGUCA | -1.38 ± 0.096 | -0.796 ± 0.13 |
| CUGAAGCAAUAUUACGGUGC | -2.89 ± 0.25 | – |
| CUGAAGCAAUAUUACGGUGG | -1.02 ± 0.065 | -0.466 ± 0.094 |
| CUGAAGCAAUAUUACGUAUC | -3.82 ± 0.23 | -1.78 ± 0.23 |
| CUGAAGCAAUAUUACGUCUC | – | -1.47 ± 0.18 |
| CUGAAGCAAUAUUACGUGAA | -2.91 ± 0.23 | -1.93 ± 0.26 |
| CUGCAGCAAUAUUACGAAGU | -4.26 ± 0.34 | – |
| CUGCAGCAAUAUUACGAAUU | -3.62 ± 0.22 | -3.18 ± 0.43 |
| CUGCAGCAAUAUUACGACAG | -2.43 ± 0.13 | -1.56 ± 0.18 |
| CUGCAGCAAUAUUACGACGA | -1.85 ± 0.18 | -1.16 ± 0.17 |
| CUGCAGCAAUAUUACGACUG | -2.56 ± 0.16 | -1.74 ± 0.2 |
| CUGCAGCAAUAUUACGAGGU | -3.65 ± 0.14 | -3.53 ± 0.2 |
| CUGCAGCAAUAUUACGAGUA | -2.85 ± 0.23 | -2.97 ± 0.28 |
| CUGCAGCAAUAUUACGAUAA | -3.39 ± 0.28 | -3.1 ± 0.28 |
| CUGCAGCAAUAUUACGCAGU | -1.6 ± 0.14 | -3.15 ± 0.35 |
| CUGCAGCAAUAUUACGCCUG | -2.21 ± 0.28 | -1.14 ± 0.28 |
| CUGCAGCAAUAUUACGCGAU | -1.12 ± 0.09 | -0.167 ± 0.12 |
| CUGCAGCAAUAUUACGCGUA | -1.22 ± 0.23 | -1.53 ± 0.22 |
| CUGCAGCAAUAUUACGGAAC | -3.88 ± 0.27 | -1.81 ± 0.27 |
| CUGCAGCAAUAUUACGGCAA | -0.665 ± 0.094 | 0.202 ± 0.088 |

| Sequence | self-splicing fitness (ln) (30 °C) | self-splicing fitness (ln) (37 °C) |
| --- | --- | --- |
| CUGCAGCAAUAUUACGGUAC | -4.59 ± 0.24 | -1.81 ± 0.21 |
| CUGCAGCAAUAUUACGGUCG | -0.487 ± 0.077 | 0.0459 ± 0.09 |
| CUGCAGCAAUAUUACGUAUU | -4.27 ± 0.18 | -3.51 ± 0.19 |
| CUGCAGCAAUAUUACGUCUC | – | -2.12 ± 0.26 |
| CUGCAGCAAUAUUACGUGAG | -0.703 ± 0.067 | 0.216 ± 0.093 |
| CUGGAGCAAUAUUACGAGAG | -3.54 ± 0.36 | -3.53 ± 0.33 |
| CUGGAGCAAUAUUACGAGUG | -1.26 ± 0.087 | -0.568 ± 0.12 |
| CUGGAGCAAUAUUACGAUGA | -3.18 ± 0.4 | -1.87 ± 0.24 |
| CUGGAGCAAUAUUACGCGGC | -1.27 ± 0.14 | 0.0532 ± 0.14 |
| CUGGAGCAAUAUUACGCUCG | -1.13 ± 0.18 | – |
| CUGGAGCAAUAUUACGCUUA | -2.59 ± 0.45 | -2.32 ± 0.35 |
| CUGGAGCAAUAUUACGGAAG | -3.48 ± 0.41 | -1.45 ± 0.28 |
| CUGGAGCAAUAUUACGUACA | – | -1.28 ± 0.48 |
| CUGGAGCAAUAUUACGUAGC | – | -2.38 ± 0.32 |
| CUGGAGCAAUAUUACGUCAG | -4.05 ± 0.46 | -2.59 ± 0.29 |
| CUGGAGCAAUAUUACGUCCG | -2.17 ± 0.16 | -0.559 ± 0.15 |
| CUGGAGCAAUAUUACGUCGU | -3.88 ± 0.23 | -2.39 ± 0.22 |
| CUGGAGCAAUAUUACGUCUU | -3.27 ± 0.39 | – |
| CUGGAGCAAUAUUACGUGCG | -1.44 ± 0.092 | -1.19 ± 0.12 |
| CUGGAGCAAUAUUACGUGGC | -2.22 ± 0.21 | -2.13 ± 0.25 |
| CUGGAGCAAUAUUACGUUUG | -2.66 ± 0.17 | -1.21 ± 0.17 |
| CUGUAGCAAUAUUACGAACC | -2.02 ± 0.47 | – |
| CUGUAGCAAUAUUACGAAUC | -3.03 ± 0.35 | – |
| CUGUAGCAAUAUUACGACAC | – | -2.65 ± 0.44 |
| CUGUAGCAAUAUUACGAGAU | -3.86 ± 0.16 | -2.21 ± 0.15 |

| Sequence | self-splicing fitness (ln) (30 °C) | self-splicing fitness (ln) (37 °C) |
| --- | --- | --- |
| CUGUAGCAAUAUUACGAGCG | -0.681 ± 0.094 | 0.0625 ± 0.12 |
| CUGUAGCAAUAUUACGAUCA | -2.29 ± 0.25 | -1.96 ± 0.42 |
| CUGUAGCAAUAUUACGAUGA | -1.86 ± 0.16 | -1.83 ± 0.16 |
| CUGUAGCAAUAUUACGCAAG | -2.47 ± 0.12 | -1.56 ± 0.11 |
| CUGUAGCAAUAUUACGCGAU | -4.41 ± 0.32 | -2.87 ± 0.28 |
| CUGUAGCAAUAUUACGGACU | -3.43 ± 0.3 | -1.83 ± 0.24 |
| CUGUAGCAAUAUUACGGCAA | -3.11 ± 0.39 | – |
| CUGUAGCAAUAUUACGGCCG | -0.368 ± 0.13 | 0.257 ± 0.16 |
| CUGUAGCAAUAUUACGGGCG | -1.86 ± 0.09 | -0.334 ± 0.11 |
| CUGUAGCAAUAUUACGGGCU | -4.31 ± 0.3 | -3.2 ± 0.29 |
| CUGUAGCAAUAUUACGGGGU | -2.96 ± 0.34 | -2.82 ± 0.36 |
| CUGUAGCAAUAUUACGGGUC | -4.47 ± 0.34 | -2.65 ± 0.26 |
| CUGUAGCAAUAUUACGGUGC | -3.58 ± 0.2 | -2.77 ± 0.19 |
| CUGUAGCAAUAUUACGUCUU | -4.7 ± 0.26 | -2.67 ± 0.3 |
| CUGUAGCAAUAUUACGUGCU | -2.94 ± 0.24 | -2.39 ± 0.33 |
| CUGUAGCAAUAUUACGUUGU | -3.59 ± 0.25 | -4.02 ± 0.33 |
| CUUAAGCAAUAUUACGAAGA | -2.98 ± 0.24 | -1.45 ± 0.26 |
| CUUAAGCAAUAUUACGAAGU | -2.9 ± 0.13 | -2.19 ± 0.18 |
| CUUAAGCAAUAUUACGACGC | -3.04 ± 0.28 | -2.22 ± 0.4 |
| CUUAAGCAAUAUUACGACUU | -4.36 ± 0.32 | -1.74 ± 0.21 |
| CUUAAGCAAUAUUACGAGUG | -1.39 ± 0.068 | -0.428 ± 0.1 |
| CUUAAGCAAUAUUACGAUGA | -3.04 ± 0.43 | -0.126 ± 0.22 |
| CUUAAGCAAUAUUACGAUUU | -4.53 ± 0.42 | -2.7 ± 0.24 |
| CUUAAGCAAUAUUACGCACA | -2.43 ± 0.35 | -1.87 ± 0.4 |
| CUUAAGCAAUAUUACGCACG | -1.62 ± 0.14 | -0.394 ± 0.16 |

| Sequence | self-splicing fitness (ln) (30 °C) | self-splicing fitness (ln) (37 °C) |
| --- | --- | --- |
| CUUAAGCAAUAUUACGCACU | -2.93 ± 0.17 | -1.53 ± 0.17 |
| CUUAAGCAAUAUUACGCCAG | -2.49 ± 0.22 | -2.06 ± 0.33 |
| CUUAAGCAAUAUUACGCCAU | -1.9 ± 0.33 | -2.35 ± 0.29 |
| CUUAAGCAAUAUUACGCUAG | -3.35 ± 0.25 | -0.439 ± 0.19 |
| CUUAAGCAAUAUUACGCUGU | -4.48 ± 0.34 | -2.3 ± 0.23 |
| CUUAAGCAAUAUUACGCUUC | -3.15 ± 0.4 | – |
| CUUAAGCAAUAUUACGGACG | -0.229 ± 0.085 | 0.228 ± 0.12 |
| CUUAAGCAAUAUUACGGAGA | -2.45 ± 0.24 | -2.31 ± 0.29 |
| CUUAAGCAAUAUUACGGCCG | -0.607 ± 0.093 | -0.38 ± 0.13 |
| CUUAAGCAAUAUUACGGCCU | -2.74 ± 0.25 | -3.1 ± 0.44 |
| CUUAAGCAAUAUUACGGCGA | -4.04 ± 0.46 | -1.81 ± 0.34 |
| CUUAAGCAAUAUUACGGGGU | -3.09 ± 0.15 | -3.33 ± 0.29 |
| CUUAAGCAAUAUUACGGUAG | -1.58 ± 0.12 | -0.559 ± 0.12 |
| CUUAAGCAAUAUUACGGUCU | -4.28 ± 0.26 | -2.64 ± 0.29 |
| CUUAAGCAAUAUUACGGUUU | -4.49 ± 0.3 | -2.88 ± 0.4 |
| CUUAAGCAAUAUUACGUAAU | -2.96 ± 0.13 | -1.56 ± 0.12 |
| CUUAAGCAAUAUUACGUACA | – | -2.73 ± 0.39 |
| CUUAAGCAAUAUUACGUGAG | -3.73 ± 0.19 | -2.14 ± 0.14 |
| CUUAAGCAAUAUUACGUGUC | -4.45 ± 0.21 | -1.8 ± 0.15 |
| CUUAAGCAAUAUUACGUGUG | -1.18 ± 0.061 | -0.604 ± 0.074 |
| CUUCAGCAAUAUUACGAAGG | -2.06 ± 0.13 | -1.08 ± 0.18 |
| CUUCAGCAAUAUUACGACUG | -0.803 ± 0.077 | -0.505 ± 0.092 |
| CUUCAGCAAUAUUACGAGUG | -0.689 ± 0.051 | -0.602 ± 0.071 |
| CUUCAGCAAUAUUACGAUUG | -0.473 ± 0.045 | 0.038 ± 0.063 |
| CUUCAGCAAUAUUACGCAAG | -4.31 ± 0.26 | -1.81 ± 0.2 |
